Patent publication US6555322 (FIBROGEN, dated 2003)

Legend:
[1] = target: T1, murine low density lipoprotein receptor-related protein (LRP) / α2-macroglobulin receptor, CTGF receptor on … (murine, UniProt Q91ZX7 20-4545); assay: equilibrium binding of 125I-rhCTGF to cells (FIG. 2, BMS2), non-linear regression; low affinity site
T1 construct: whole, on cells; they are fragments found by mass spectrometry, not the construct; In the cell the protein is cleaved into non-covalently joined α and β subunits (background statement); also called α2MR; LRP/α2MR

[2] = target: T2, CTGF receptor (LRP), cells not named; assay: equilibrium binding of 125I-rhCTGF to other cells with a single class of sites
T2 construct: whole, on cells; 'other cells examined'); also called cross-linked complex; 620 kDa protein

[3] = target: high affinity binding site for CTGF on cells; assay: equilibrium binding of 125I-rhCTGF to cells (FIG. 2, BMS2), non-linear regression; high affinity site
[4] = target: T2, CTGF receptor (LRP), cells not named; assay: 200 pM iodinated CTGF with 0-6.5 nM unlabeled CTGF on cells, S-SMCC cross-linking, densitometry of the complex bands
[5] = target: human low density lipoprotein receptor-related protein (LRP) / α2-macroglobulin receptor, CTGF receptor on … (human, UniProt Q07954 20-4544); assay: cell-based or functional assay
[6] = target: T1, murine low density lipoprotein …; assay: competition with 0.1 nM 125I-CTGF on BMS-2 cells

T1 sequence (Q91ZX7 20-4545): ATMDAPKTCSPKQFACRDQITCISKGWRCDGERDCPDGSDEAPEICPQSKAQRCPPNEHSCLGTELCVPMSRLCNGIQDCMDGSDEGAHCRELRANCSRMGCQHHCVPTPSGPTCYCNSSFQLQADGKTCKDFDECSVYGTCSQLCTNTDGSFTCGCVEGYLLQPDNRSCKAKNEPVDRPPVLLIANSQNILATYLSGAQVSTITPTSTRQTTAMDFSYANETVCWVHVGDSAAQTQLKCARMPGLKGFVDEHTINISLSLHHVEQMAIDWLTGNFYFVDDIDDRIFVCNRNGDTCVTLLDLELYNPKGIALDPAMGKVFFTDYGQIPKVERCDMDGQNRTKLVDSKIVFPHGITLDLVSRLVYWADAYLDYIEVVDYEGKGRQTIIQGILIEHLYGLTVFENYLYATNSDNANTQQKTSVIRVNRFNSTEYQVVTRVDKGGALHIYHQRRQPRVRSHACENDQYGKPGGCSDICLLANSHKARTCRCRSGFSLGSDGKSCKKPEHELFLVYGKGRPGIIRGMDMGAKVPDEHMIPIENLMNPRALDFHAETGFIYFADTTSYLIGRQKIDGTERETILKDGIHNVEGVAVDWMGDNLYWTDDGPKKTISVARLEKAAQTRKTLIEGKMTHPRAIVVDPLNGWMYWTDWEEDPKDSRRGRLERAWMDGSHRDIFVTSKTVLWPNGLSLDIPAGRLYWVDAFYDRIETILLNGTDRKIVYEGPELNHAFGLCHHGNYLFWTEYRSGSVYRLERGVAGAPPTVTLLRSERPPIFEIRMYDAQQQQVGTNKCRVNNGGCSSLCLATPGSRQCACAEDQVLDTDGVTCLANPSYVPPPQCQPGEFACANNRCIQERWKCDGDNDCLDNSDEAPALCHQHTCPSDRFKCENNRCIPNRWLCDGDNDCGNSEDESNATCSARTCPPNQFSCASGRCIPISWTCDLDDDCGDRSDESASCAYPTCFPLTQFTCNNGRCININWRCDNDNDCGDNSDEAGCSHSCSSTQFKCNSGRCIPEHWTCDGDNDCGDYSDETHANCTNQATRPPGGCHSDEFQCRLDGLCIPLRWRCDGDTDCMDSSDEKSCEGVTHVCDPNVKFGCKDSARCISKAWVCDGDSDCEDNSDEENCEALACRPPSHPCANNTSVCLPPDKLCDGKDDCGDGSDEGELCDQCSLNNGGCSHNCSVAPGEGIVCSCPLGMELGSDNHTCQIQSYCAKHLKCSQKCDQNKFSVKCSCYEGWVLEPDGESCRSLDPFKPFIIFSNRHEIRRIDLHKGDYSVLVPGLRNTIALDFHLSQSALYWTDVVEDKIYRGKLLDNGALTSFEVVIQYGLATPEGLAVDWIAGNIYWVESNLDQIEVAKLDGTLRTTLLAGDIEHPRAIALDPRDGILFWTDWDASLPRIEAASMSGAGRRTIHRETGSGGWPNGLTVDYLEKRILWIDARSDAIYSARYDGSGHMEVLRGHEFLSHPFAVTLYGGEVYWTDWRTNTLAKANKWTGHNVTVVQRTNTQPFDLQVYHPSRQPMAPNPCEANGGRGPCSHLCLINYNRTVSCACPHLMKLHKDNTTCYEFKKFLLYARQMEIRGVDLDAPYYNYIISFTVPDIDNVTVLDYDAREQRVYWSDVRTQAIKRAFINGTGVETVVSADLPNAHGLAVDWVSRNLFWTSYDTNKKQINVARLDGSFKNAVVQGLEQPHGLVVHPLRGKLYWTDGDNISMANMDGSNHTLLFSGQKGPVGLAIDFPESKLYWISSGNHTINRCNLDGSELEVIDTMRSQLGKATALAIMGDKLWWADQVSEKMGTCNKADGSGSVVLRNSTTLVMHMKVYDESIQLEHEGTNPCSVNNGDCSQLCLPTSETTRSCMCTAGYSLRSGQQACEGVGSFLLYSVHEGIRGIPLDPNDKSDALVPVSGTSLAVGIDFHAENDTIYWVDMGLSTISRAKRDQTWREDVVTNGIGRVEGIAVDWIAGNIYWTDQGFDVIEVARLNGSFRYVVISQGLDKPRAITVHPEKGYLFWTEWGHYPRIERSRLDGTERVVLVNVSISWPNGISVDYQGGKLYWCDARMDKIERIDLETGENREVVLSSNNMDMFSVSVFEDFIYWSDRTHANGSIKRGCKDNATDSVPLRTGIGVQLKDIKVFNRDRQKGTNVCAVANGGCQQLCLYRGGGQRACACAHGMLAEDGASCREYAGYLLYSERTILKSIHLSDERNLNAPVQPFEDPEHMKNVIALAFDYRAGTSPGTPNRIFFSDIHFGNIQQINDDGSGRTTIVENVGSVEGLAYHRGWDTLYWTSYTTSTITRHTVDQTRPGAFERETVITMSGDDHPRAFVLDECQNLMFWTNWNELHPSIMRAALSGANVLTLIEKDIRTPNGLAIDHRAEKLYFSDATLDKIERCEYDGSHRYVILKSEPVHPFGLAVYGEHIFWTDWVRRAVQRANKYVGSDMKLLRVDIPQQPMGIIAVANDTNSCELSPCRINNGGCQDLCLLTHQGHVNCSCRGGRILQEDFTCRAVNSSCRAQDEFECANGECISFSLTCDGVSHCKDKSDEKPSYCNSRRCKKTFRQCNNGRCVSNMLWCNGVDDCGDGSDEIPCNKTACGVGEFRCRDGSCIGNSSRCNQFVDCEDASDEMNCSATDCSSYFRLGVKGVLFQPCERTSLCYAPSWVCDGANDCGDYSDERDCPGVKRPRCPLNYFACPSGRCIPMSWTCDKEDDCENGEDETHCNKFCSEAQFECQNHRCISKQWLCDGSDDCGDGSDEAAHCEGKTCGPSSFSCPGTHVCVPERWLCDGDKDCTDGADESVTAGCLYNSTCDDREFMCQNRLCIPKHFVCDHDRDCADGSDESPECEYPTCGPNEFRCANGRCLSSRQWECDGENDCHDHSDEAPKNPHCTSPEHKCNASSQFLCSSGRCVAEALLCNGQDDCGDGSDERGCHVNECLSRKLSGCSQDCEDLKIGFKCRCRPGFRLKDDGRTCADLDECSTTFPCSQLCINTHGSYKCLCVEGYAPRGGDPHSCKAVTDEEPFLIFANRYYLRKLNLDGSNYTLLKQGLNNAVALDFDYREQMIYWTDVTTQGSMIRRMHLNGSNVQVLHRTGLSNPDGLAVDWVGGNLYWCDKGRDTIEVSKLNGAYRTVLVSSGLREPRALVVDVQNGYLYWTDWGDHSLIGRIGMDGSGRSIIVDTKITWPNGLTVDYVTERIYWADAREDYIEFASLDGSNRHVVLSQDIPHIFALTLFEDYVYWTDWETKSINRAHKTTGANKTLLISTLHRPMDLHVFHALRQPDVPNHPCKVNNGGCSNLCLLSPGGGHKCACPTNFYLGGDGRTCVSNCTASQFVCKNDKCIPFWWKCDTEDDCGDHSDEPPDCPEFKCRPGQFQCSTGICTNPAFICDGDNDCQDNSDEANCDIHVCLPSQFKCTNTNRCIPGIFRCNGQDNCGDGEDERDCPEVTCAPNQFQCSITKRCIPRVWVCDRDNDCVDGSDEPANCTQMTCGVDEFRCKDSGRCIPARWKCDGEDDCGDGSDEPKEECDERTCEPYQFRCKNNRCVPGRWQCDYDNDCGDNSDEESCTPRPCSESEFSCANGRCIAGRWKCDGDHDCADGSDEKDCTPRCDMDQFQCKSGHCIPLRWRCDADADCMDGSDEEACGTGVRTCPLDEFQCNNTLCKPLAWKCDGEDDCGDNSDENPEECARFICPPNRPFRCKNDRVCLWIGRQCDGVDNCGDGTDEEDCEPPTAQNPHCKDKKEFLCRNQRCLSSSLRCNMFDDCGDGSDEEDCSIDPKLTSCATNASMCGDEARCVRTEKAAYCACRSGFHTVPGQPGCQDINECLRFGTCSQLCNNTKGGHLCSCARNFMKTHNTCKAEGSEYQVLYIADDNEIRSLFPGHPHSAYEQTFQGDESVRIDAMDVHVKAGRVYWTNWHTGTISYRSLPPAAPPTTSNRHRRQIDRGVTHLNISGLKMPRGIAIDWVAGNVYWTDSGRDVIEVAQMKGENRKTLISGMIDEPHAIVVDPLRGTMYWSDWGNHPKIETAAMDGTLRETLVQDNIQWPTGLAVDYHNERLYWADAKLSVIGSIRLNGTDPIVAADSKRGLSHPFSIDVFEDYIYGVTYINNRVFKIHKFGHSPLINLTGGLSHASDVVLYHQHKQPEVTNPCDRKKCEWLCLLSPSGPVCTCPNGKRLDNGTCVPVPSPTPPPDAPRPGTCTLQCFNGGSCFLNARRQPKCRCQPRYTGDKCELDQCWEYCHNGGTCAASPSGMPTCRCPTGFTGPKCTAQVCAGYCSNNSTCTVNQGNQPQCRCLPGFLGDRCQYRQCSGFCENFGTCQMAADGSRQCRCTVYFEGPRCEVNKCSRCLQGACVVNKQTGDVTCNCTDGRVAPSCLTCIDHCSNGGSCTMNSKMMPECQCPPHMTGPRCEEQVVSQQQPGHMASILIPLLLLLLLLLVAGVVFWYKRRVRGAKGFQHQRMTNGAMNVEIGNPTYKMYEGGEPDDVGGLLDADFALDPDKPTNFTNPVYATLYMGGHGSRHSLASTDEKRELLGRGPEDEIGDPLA

Kd [1] [nM]	Kd [2] [nM]	Kd [3] [nM]	IC50 [4] [nM]	degradation of 125I-CTGF, control MG63 cells against cells treated with TGF-β for 48 hours [5] [fold]	binding result [6]	Binder
~1	~1	~0.137	~1	≥ 3		recombinant human connective tissue growth factor (rhCTGF) (ligand, UniProt P29279 27-349, looked up, radioiodinated (125I; Iodobeads or chloramine-T) when used as tracer; unlabeled when used as competitor, mature; Form set to mature because the protein was secreted and purified from conditioned medium) QNCSGPCRCPDEPAPRCPAGVSLVLDGCGCCRVCAKQLGELCTERDPCDPHKGLFCHFGSPANRKIGVCTAKDGAPCIFGGTVYRSGESFQSSCKYQCTCLDGAVGCMPLCSMDVRLPSPDCPFPRRVKLPGKCCEEWVCDEPKDQTVVGPALAAYRLEDTFGPDPTMIRANCLVQTTEWSACSKTCGMGISTRVTNDNASCRLEKQSRLCMVRPCEADLEENIKKGKKCIRTPKISKPIKFELSGCTSMKTYRAKFCGVCTDGRCCTPHRTTTLPVEFKCPDGEVMKKNMMFIKTCACHYNCPGDNDIFESLYYRKMYGDMA
					binds	lipoprotein lipase purified from bovine milk (enzyme, UniProt P11151 29-478, looked up, also called LpL) DRITGGKDFRDIESKFALRTPEDTAEDTCHLIPGVTESVANCHFNHSSKTFVVIHGWTVTGMYESWVPKLVAALYKREPDSNVIVVDWLSRAQQHYPVSAGYTKLVGQDVAKFMNWMADEFNYPLGNVHLLGYSLGAHAAGIAGSLTNKKVNRITGLDPAGPNFEYAEAPSRLSPDDADFVDVLHTFTRGSPGRSIGIQKPVGHVDIYPNGGTFQPGCNIGEALRVIAERGLGDVDQLVKCSHERSVHLFIDSLLNEENPSKAYRCNSKEAFEKGLCLSCRKNRCNNMGYEINKVRAKRSSKMYLKTRSQMPYKVFHYQVKIHFSGTESNTYTNQAFEISLYGTVAESENIPFTLPEVSTNKTYSFLLYTEVDIGELLMLKLKWISDSYFSWSNWWSSPGFDIGKIRVKAGETQKKVIFCSREKMSYLQKGKSPVIFVKCHDKSLNRKSG
